Where two headings read alike, the source gives them in different places.
How the values were obtained:
Assay type in all cases: biochemical, Drosophila melanogaster
[1] = substrate: Nc1nc2c(ncn2[C@@H]2O[C@H](COP(=O)(O)OP(=O)(O)OP(=O)(O)O)[C@@H](O)[C@H]2O)c(=O)[nH]1
[2] = substrate: Nc1nc2c(ncn2[C@@H]2O[C@H](COP(=O)(O)OP(=O)(O)OP(=O)(O)O)[C@@H](O)[C@H]2O)c(=O)[nH]1; remark: listed apart in the source
[3] = substrate: Nc1nc2c(ncn2[C@@H]2O[C@H](COP(=O)(O)OP(=O)(O)OP(=O)(O)O)[C@@H](O)[C@H]2O)c(=O)[nH]1; remark: listed apart in the source
[4] = substrate: Nc1nc2c(ncn2[C@@H]2O[C@H](COP(=O)(O)OP(=O)(O)OP(=O)(O)O)[C@@H](O)[C@H]2O)c(=O)[nH]1; remark: listed apart in the source

B1: Gycα-99B/β-100B (Drosophila melanogaster) (protein)
chain 1: MACPFFRRADSLTRQPSVIAEPGGHWALEDEELSDDALTLTHLQMAIQLLTAPSNEDLNTAVTSLVAKYRQNWPNIHKLKLDPQTFKSCANYDYLADIQELLLKMDEASASEILVLLGEELITCCCTGIIERAFRCLGTDLQEFLGSLDGVYDVLKLQEEDVTDTGFVCAGEGELIFTSERPVIAWLLLGSLKALTRMLYKVDVNIKIEPVEGDARRYRYLFSLVKDNSQTMLMGRPTSVSKTIPETVQRSNSSNASDLQMNSSSFCKMFPWHFIMNEQLELVQLGRGFSKLYKPYMADFGCQATTYFDFKRPKGLTMKFRDIVRRTYTPFLIGLNNPPGAVDFPAIGLEIKGQMVHCPESNSLLFIGSPFLDGLDGLTCNGLFISDIPLHDATREVILVGEQARAQDGLRRRMDKIKNSIEEANSAVTKERKKNVSLLHLIFPAEIAEKLWLGSSIDAKTYPDVTILFSDIVGFTSICSRATPFMVISMLEGLYKDFDEFCDFFDVYKVETIGDAYCVASGLHRASIYDAHKVAWMALKMIDACSKHITHDGEQIKMRIGLHTGTVLAGVVGRKMPRYCLFGHSVTIANKFESGSEALKINVSPTTKDWLTKHEGFEFELQPRDPSFLPKEFPNPGGTETCYFLESFRNPALDSELPLVEHINVSMKTISEGGDA
chain 2: MYGFVNYALELLVLKHFGEEIWEKIKKKAMVSMEGQFLVRQIYDDEITYNLIGAAVEILNIPADDILELFGKTFFEFCQDSGYDKILQVLGATPRDFLQNLDALHDHLGTLYPGMRAPSFRCTEKDGELLLHYYSERPGLEHIVIGIVKAVASKLHGVEVEIDIVKRKGEPIDEAEKERAIARENQQLLEDAVATTTTGSATVVLAPSSDAERNNNHNGSNGSNNNGMANNGNTVNVNNNNDGQQIASETDPSIALSTCPIAQDSFDCDGDKEQKCLRLLKNKSDDIERYDHVQFLIREINVAAKSQVDAKKDEVPDDMEFLCEAPLISPATFCKVFPFHLMFDRQMKIVQAGKAVSRVIPRVAEENCSLIEVVEAIRPHLQLNFENILSHINTIYVLQTRQGAMSSRHEQRFLRLKGQMMYIPETDRILFQCYPSVMNLDDLTKKGLYISDVPLHDAARDLVLLSEKFEAEYKLTKNLEMLTDKLQQTFRDLESEKQKTDRLLYSVLPKSVANELRHQRPVPPKRYDSVTLMFSGIVGFGQYCAANTDPDGAMKIVKMLNELYTVFDALTDSKRNLNVYKVETVGDKYMAVSGLPDHCEDHAKCMARVALDMMDMAKNVKMGSNPVQITIGIHSGEVVTGVIGNRVPRYCLFGNTVNLTSRTETTGVPGRINVSEETYRLLCMAINQDDSFHLEYRGPVIMKGKPTPMDCWFLTRATSSILGGTSSTGGSGGGGNGSLDSPLLQPATPTAGAATPIPVVAQRAAGHASVSRTSSAGGGGGGAVVGT
- Km ([1]; other: in the presence of Mg2+): 370 ± 60 µM
- Vmax ([1]; other: in the presence of Mg2+): 2.11 ± 0.10 pmoles cGMP/min/mg protein
- Km ([1]; other: in the presence of Mn2+): 31 ± 8 µM
- Vmax ([1]; other: in the presence of Mn2+): 204 ± 10.6 pmoles cGMP/min/mg protein

B2: Gyc-88EL (Drosophila melanogaster) (protein)
chain: MYGLLLENLSEYIKSVYGEEKWEDIRRQAGIDSPSFSVHQVYPENLLQKLAKKAQQVLGVSERDFMDQMGVYFVGFVGQYGYDRVLSVLGRHMRDFLNGLDNLHEYLKFSYPRMRAPSFICENETKQGLTLHYRSKRRGFVYYTMGQIREVARYFYHKEMHIELVREEILFDTVHVTFQLTFDNRAFTLASLAMTREEKHLPISAHVLFEIFPFCMVFGADMVVRSIGNSLMVILPELLGKKITAWFDLVRPLIAFKFQTILNRTNNIFELVTVDPVTERFDVQNEDLLQHEDGSEPEKSLRLKGQMVYMENWRMIMFLGTPVMPDLTSLITTGLYINDLSMHDFSRDLMLAGTQQSVELKLALDQEQQKSKKLEESMRLLDEEMRRTDELLYQMIPKQVADRLRRGENPIDTCEMFDSVSILFSDIVTFTEICSRITPMEVVSMLNAMYSIFDKLTERNSVYKVETIGDAYMVVAGAPDKDANHAERVCDMALDMVDAITDLKDPSTGQHLRIRVGVHSGAVVAGIVGLKMPRYCLFGDTVNTASRMESTSIAMKVHISESTKVLIGPNYKIIERGEIDVKGKGTMGTYWLEERENRLPLQLTAALQVHPLSPVPPTPTPKTKAIMPPVSKPLTPMMPVSVSLAASMPTSNVPAVDVMASSSSISGLALTAAAAAHMSLHHQAVVAEALTGASVEVALPSVASGATGAAAGGGAPSDDRNSRIYSPVTFKDVARRSVANSPVRSCAQPDQERRRESRSNSTGHVFMRTPSEIFGSLILDTEEFLEDLQISRSSLANNNNNQSPCGFSPTPPFRIGSAPPKPRPSNPDKFTPEELAAMDQLTPPSTAPARETASCSSASLDRDKATKLKKITFSNSSSLDATTPTALAAVVCPMRTKSPPMAVAPVMHMVQASTSKGDGQRPGSKDSVSSISLHSPPPHRSNSAPARPHSMSKAARKAFLAAKQTKAMEKLDKMIEEVQEVESQSVAKAANMRLALYGHDGGGDLAAGGCPLFLPPPPQQQQQQQQSLMPSSISDSGLCSHGHSHAPSCHHMDPKMTNSQSFQHSPRGGITHQCCSGFGHGNGRHSHRMHSNACRIL
- Km ([2]; other: in the presence of Mg2+): 1730 ± 1300 µM
- Vmax ([2]; other: in the presence of Mg2+): 1.32 ± 0.33 pmoles cGMP/min/mg protein
- Km ([2]; other: in the presence of Mn2+): 32 ± 11 µM
- Vmax ([2]; other: in the presence of Mn2+): 2.26 ± 0.16 pmoles cGMP/min/mg protein

B3: Gyc-88EL/89Da (Drosophila melanogaster) (protein)
chain 1: B2 chain
chain 2: not shown
- Km ([3]; other: in the presence of Mg2+): 2060 ± 1950 µM
- Vmax ([3]; other: in the presence of Mg2+): 1.92 ± 0.65 pmoles cGMP/min/mg protein
- Km ([3]; other: in the presence of Mn2+): 149 ± 14 µM
- Vmax ([3]; other: in the presence of Mn2+): 90.1 ± 2.34 pmoles cGMP/min/mg protein

B4: Gyc-88EL/89Db (Drosophila melanogaster) (protein)
chain 1: B2 chain
chain 2: not shown
- Km ([4]; other: in the presence of Mg2+): 890 ± 170 µM
- Vmax ([4]; other: in the presence of Mg2+): 4.83 ± 0.33 pmoles cGMP/min/mg protein
- Km ([4]; other: in the presence of Mn2+): 9.4 ± 4.8 µM
- Vmax ([4]; other: in the presence of Mn2+): 8.72 ± 0.82 pmoles cGMP/min/mg protein
